2 molecules from publication PMC8954747 (Viruses, 2022) can be followed below.

What all share (assay): ITC
What all share (conditions): both partners purified

In assay [1] the target is T1, human Scribble (SCRIB) PDZ1 domain (residues 725-815) (human, UniProt Q14160 725-815).
T1 construct: also called PDZ1 WT

In assay [2] the target is T2, human Scribble (SCRIB) PDZ2 domain (residues 860-950) (human, UniProt Q14160 860-950).
T2 construct: also called PDZ2 WT
T2 sequence (looked up): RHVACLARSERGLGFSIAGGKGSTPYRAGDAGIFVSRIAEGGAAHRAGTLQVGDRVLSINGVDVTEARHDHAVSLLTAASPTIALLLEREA

The target in assay [3] is T3, human Scribble (SCRIB) PDZ3 domain (residues 1002-1093) (human, UniProt Q14160 1002-1093).
T3 construct: also called wild-type SCRIB PDZ3
T3 sequence (looked up): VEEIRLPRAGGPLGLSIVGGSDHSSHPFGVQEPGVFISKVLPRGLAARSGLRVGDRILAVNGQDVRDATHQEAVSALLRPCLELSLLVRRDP

Assay [4] concerns the target T4, human Scribble (SCRIB) PDZ4 domain (residues 1099-1203) (human, UniProt Q14160 1099-1203).
T4 sequence (looked up): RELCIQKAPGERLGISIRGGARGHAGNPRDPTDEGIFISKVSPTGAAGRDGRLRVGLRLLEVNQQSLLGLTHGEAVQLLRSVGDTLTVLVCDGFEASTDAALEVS

T1 sequence (Q14160 725-815): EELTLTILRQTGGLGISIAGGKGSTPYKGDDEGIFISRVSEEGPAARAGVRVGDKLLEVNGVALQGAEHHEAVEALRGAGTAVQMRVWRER

As to KMARTIESEV [NS1 ESEV PBM peptide KMARTIESEV (H5N1 A/Viet Nam/1194/2004), 10-mer], the Kd in assay [1] came out at 21.4 µM; in assay [2], 18.7 µM; in assay [3], 13.1 µM; in assay [4] it was 12.2 µM. Also, the “stoichiometry N” value in assay [1] amounted to 1.1 ± 0.1; in assay [2], 1 ± 0.03; in assay [3] it was 1.1 ± 0.1; in assay [4] it was 1 ± 0.1.
For KMARTIESKV [NS1 ESKV PBM peptide KMARTIESKV (H5N1 A/chicken/Hubei/327/2004), 10-mer], the Kd in assay [1] worked out at 30 µM; in assay [2] it was 9.5 µM; in assay [3] it was 12.1 µM. Besides, the “stoichiometry N” value is 1.2 in assay [1], 1.1 in assay [2] and 1.1 in assay [3].

Broadly, the Kd is the free concentration of one partner at which half of the binding sites on the other are occupied at equilibrium, for simple one-to-one binding. High values mean lower affinity, low ones higher affinity. In general, stoichiometry N refers to the number of molecules, sites or subunits per partner or assembly.
